{"source": "patent US20090232804A1", "about": "(GLENMARK PHARMACEUTICALS S A, published 2009)", "molecules": {"B1": {"name": "humanized NMC-4 variant H8, L5 (IgG1) (antibody, V domains shown)", "VH": "QVQLQESGPGLVKPSETLSLTCTVSGFSLTDYGVDWIRQPPGKGLEWIGMIWGDGSTDYNSALKSRLTISKDNSKNQFSLKLSSVTAADTAVYYCVRDPADYGNYDYALDYWGQGTSLTVSS", "VL": "DIQMTQSPSSLSASVGDRVTITCSASQDINKYLNWYQQKPGKAVKLLIFYTSSLHSGVPSRFSGSGSGTDYTLTISSLQPEDIATYYCQQYEKLPWTFGQGTKVEIK"}, "B2": {"name": "NMC-4-human Fc chimera (NMC-4 variable regions on human IgG1(dm) and human kappa constant regions) (antibody, V domains shown)", "VH": "QVQLKESGPGLVAPSQSLSITCTVSGFSLTDYGVDWVRQPPGKGLEWLGMIWGDGSTDYNSALKSRLSITKDNSKSQVFLKMNSLQTDDTARYYCVRDPADYGNYDYALDYWGQGTSVTVSS", "VL": "B1 VL with V15L, T22S, G41D, K42G, T72S, S77N, Q79E, Q100G, V104L, I106V", "notes": "Heavy constant region is human IgG1 with L235E, E318A, K320A, K332A (IgG1(dm)); also called NMC-4 chimera; NMC4 chimera"}, "B3": {"name": "humanized NMC-4 variant H14, L10, IgG1 (antibody, V domains shown)", "VH": "QVQLQESGPGLVKPSETLSLTCTVSGGSISDYGWDWIRQPPGKGLEWIGMIWGDGSTDYNPSLKSRVTISVDTSKNQFSLKLSSVTAADTAVYYCARDPADYGNYDYALDYWGQGTLVTVSS", "VL": "B1 VL with S24Q, N30S, K31N, V44P, F49Y, Y71F, I83F"}, "B4": {"name": "humanized NMC-4 variant H9, L9 (CDR-grafted), IgG1 (antibody, V domains shown)", "VH": "B1 VH with L67V, K71V, N73T, V96A, S117L, L118V", "VL": "B1 VL with V44P, F49Y, Y71F, I83F"}, "B5": {"name": "humanized NMC-4 variant H13, L10 (IgG1) (antibody, V domains shown)", "VH": "B3 VH with P61S, S62A", "VL": "B1 VL with S24Q, N30S, K31N, V44P, F49Y, Y71F, I83F"}, "B6": {"name": "humanized NMC-4 variant H14, L11 (IgG1) (antibody, V domains shown)", "VH": "B3 VH", "VL": "DIQMTQSPSSLSASVGDRVTITCQASQDISNYLNWYQQKPGKAPKLLIYDASNLETGVPSRFSGSGSGTDFTLTFSSLQPEDFATYYCQQYEKLPWTFGQGTKVEIK"}, "B7": {"name": "NMC-4 monoclonal antibody (murine anti-vWF antibody, IgG1κ) (antibody, V domains shown)", "VH": "B2 VH", "VL": "DIQMTQSPSSLSASLGDRVTISCSASQDINKYLNWYQQKPDGAVKLLIFYTSSLHSGVPSRFSGSGSGTDYSLTISNLEPEDIATYYCQQYEKLPWTFGGGTKLEVKR"}}, "key": {"[1]": {"target": "His tagged A1 domain of human von Willebrand factor (residues 499-729), expressed in E. coli (human) (UniProt P04275)", "test": "competition with 100 pM Eu-NMC-4 chimera on plate-coated human His-A1, DELFIA, Cheng-Prusoff"}, "[2]": {"target": "His tagged A1 domain of human von Willebrand factor (residues 499-729), expressed in E. coli (human) (UniProt P04275)", "test": "calculated from koff, DELFIA kinetics on plate-coated His-A1, 37 °C"}, "[3]": {"target": "His tagged A1 domain of human von Willebrand factor (residues 499-729), expressed in E. coli (human) (UniProt P04275)", "test": "ratio of the kinetic constants (row printed as 'kon/koff'), DELFIA, 37 °C"}, "[4]": {"target": "His tagged A1 domain of human von Willebrand factor (residues 499-729), expressed in E. coli (human) (UniProt P04275)", "test": "homologous competition with Eu-NMC-4 chimera on plate-coated His-A1, DELFIA, Cheng-Prusoff, n = 4"}, "[5]": {"target": "His tagged A1 domain of human von Willebrand factor (residues 499-729), expressed in E. coli (human) (UniProt P04275)", "test": "equilibrium binding (Scatchard), Eu-labelled antibody on direct-coated His-A1, DELFIA, 37 °C, n = 10"}, "[6]": {"target": "His tagged A1 domain of human von Willebrand factor (residues 499-729), expressed in E. coli (human) (UniProt P04275)", "test": "homologous competition with 100 pM Eu-NMC-4 chimera on plate-coated human His-A1, DELFIA, Cheng-Prusoff"}, "[7]": {"target": "His tagged A1 domain of human von Willebrand factor (residues 499-729), expressed in E. coli (human) (UniProt P04275)", "test": "DELFIA competitive binding (time-resolved fluorescence): Eu-NMC-4 chimera at 100 pM on wells coated with His-hA1, unlabelled competitor antibody varied (homologous competition)"}, "[8]": {"target": "purified human von Willebrand factor (vWF) (human) (UniProt P04275)", "test": "cell-based or functional assay"}, "[9]": {"target": "His tagged A1 domain of human von Willebrand factor (residues 499-729), expressed in E. coli (human) (UniProt P04275)", "test": "DELFIA competitive binding format (time-resolved fluorescence): Eu-NMC-4 chimera at 100 pM on wells coated with His-hA1, unlabelled AJW200 varied; EC50 of the enhancement of Eu-NMC-4 binding"}, "[10]": {"target": "T1, purified human von Willebrand factor (vWF) (human, UniProt P04275 764-2813)", "test": "cell-based or functional assay"}, "[11]": {"target": "T1, purified human von Willebrand factor …", "test": "cell-based or functional assay", "remark": "listed apart in the source"}, "[12]": {"target": "T2, His tagged A1 domain of rat von Willebrand factor, expressed in E. coli (rat, UniProt Q62935 13-256)", "T2 construct": "domain: A1 domain; also called His-A1 (rat); His-rA1; not shown: His tag from the pETDuet-1 vector", "test": "calculated from koff, DELFIA kinetics on plate-coated His-A1, 37 °C"}, "[13]": {"target": "T2, His tagged A1 domain of rat von …", "test": "ratio of the kinetic constants (row printed as 'kon/koff'), DELFIA, 37 °C"}, "[14]": {"target": "T2, His tagged A1 domain of rat von …", "test": "DELFIA association kinetics, Eu-labelled antibody on plate-coated His-A1, 37 °C"}, "[15]": {"target": "T2, His tagged A1 domain of rat von …", "test": "equilibrium binding (Scatchard), Eu-labelled antibody on direct-coated His-A1, DELFIA, 37 °C, n = 5", "method": "Equilibrium binding assays are performed as follows. Eu-antibody is pre-diluted into Binding Buffer (e.g., Wash buffer containing 100 μg/ml IgG-free BSA and 0.1% sodium azide) and applied to wells (e.g., 10 μl/well) of a 96-well plate and the plates sealed with SEALPLATE film. The plates are shaken (e.g., Titer Plate Shaker speed setting of 4 for ≧15 sec or 60 sec at RT), placed into nalgene boxes containing wet paper towels, and incubated in the closed boxes for 2 hours at 37° C. For the measurement of free label, supernatant samples (4.0 μl) are transferred from the wells containing binding mixtures into a parallel set of wells containing DELFIA Enhancement Solution (100 μl/well). To assess bound antibody, the A1-coated wells with the remaining binding mixtures are washed five times with Wash Buffer, tapped dry onto paper towels and DELFIA Enhancement Solution (100 μl/well) added to the empty wells for the measurement of bound label. For assay calibration, DELFIA Enhancement Solution (100 μl/well) is added to unused wells and Europium Standard (1.0 μl/well) is added. The plates are shaken (e.g., Titer Plate Shaker speed setting of 5 for 10 minutes at room temperature), and time-resolved fluorescent (TRF) intensities are read using a Victor2 multi-label plate reader (Perkin-Elmer Wallac, Boston, Mass.). […]"}, "[16]": {"target": "T2, His tagged A1 domain of rat von …", "test": "homologous competition with Eu-NMC-4 chimera on plate-coated rat His-A1, DELFIA, Cheng-Prusoff, n = 3", "method": "Wells of Immulon-4 plates are coated with His-A1 domain of vWF from human (e.g., 25 ng in 100 μl/well in 30 mM Tris, pH 7.4 and 300 mM NaCl or divalent cation-free PBS) or rat (e.g., 50 ng/well) by incubating overnight at 4° C. The plates are washed three times with Wash Buffer (e.g., 50 mM HEPES, pH 7.4, 150 mM NaCl, 0.5% Tween-20), blocked with 300 μl/well Blocking Buffer (e.g., Wash Buffer containing 3.0 mg/ml IgG-free BSA and 0.1% sodium azide) for 1 hour at room temperature and washed 5 times with Wash Buffer before use.\nCompetitive binding studies may be performed to determine Ki values (e.g., a measure of relative affinity for antigen). […] The final concentration of europium-labeled antibody is 100 pM."}, "[17]": {"target": "T1, purified human von Willebrand factor …", "test": "cell-based or functional assay", "remark": "listed apart in the source"}, "[18]": {"target": "T1, purified human von Willebrand factor …", "test": "cell-based or functional assay", "remark": "listed apart in the source"}}, "note": "Changes are numbered by the printed parent chain. In names and notes the source's numbering stands. Several values for one entry are separate records, joined by “and”; a condition that tells them apart may be missing. Equal values may be shown once."}
{"molecule": "NMC-4 monoclonal antibody (murine anti-vWF antibody, IgG1κ)", "values": [{"measurement": "Ki", "setting": "[1]", "result": 600, "unit": "pM"}]}
{"molecule": "NMC-4-human Fc chimera (NMC-4 variable regions on human IgG1(dm) and human kappa constant regions) (antibody)", "values": [{"measurement": "Dissociation half-life", "setting": "[2]", "result": 44, "unit": "min"}, {"measurement": "Kd", "setting": "[3]", "result": 390, "unit": "pM"}, {"measurement": "Ki", "setting": "[4]", "result": 275, "unit": "pM"}, {"measurement": "Kd", "setting": "[5]", "result": 316, "unit": "pM"}, {"measurement": "Ki", "setting": "[6]", "result": 280, "unit": "pM"}, {"measurement": "IC50 (read off the curve)", "setting": "[7]", "result": 600, "unit": "pM"}]}
{"molecule": "AJW200 reference antibody (anti-vWF A1 domain, cloned with human IgG1(dm) constant region)", "values": [{"measurement": "EC50, ristocetin-induced platelet agglutination assay", "setting": "[8]", "result": 270, "unit": "pM"}, {"measurement": "EC50 (read off the curve)", "setting": "[9]", "result": 200, "unit": "pM"}]}
{"molecule": "B1", "values": [{"measurement": "fold change of EC50 against the other variants", "setting": "[10]", "result": 1.5, "unit": "fold"}, {"measurement": "EC50", "setting": "[11]", "result": 280, "unit": "pM"}]}
{"molecule": "B2", "values": [{"measurement": "Dissociation half-life", "setting": "[12]", "result": 69, "unit": "min"}, {"measurement": "Kd", "setting": "[13]", "result": 700, "unit": "pM"}, {"measurement": "kon", "setting": "[14]", "result": 233000, "unit": "M⁻¹ s⁻¹"}, {"measurement": "Kd", "setting": "[15]", "result": 276, "unit": "pM"}, {"measurement": "Ki", "setting": "[16]", "result": 297, "unit": "pM"}]}
{"molecule": "B3", "values": [{"measurement": "EC50 (nM), platelet agglutination assay", "setting": "[17]", "result": 0.22, "unit": "nM"}, {"measurement": "Platelet agglutination EC50, single experiment", "setting": "[18]", "result": "1100 pM and 1300 pM"}, {"measurement": "Platelet agglutination EC50 mean value (from 2 independent expts.)", "setting": "[18]", "result": 1200, "unit": "pM"}]}
{"molecule": "B4", "values": [{"measurement": "EC50", "setting": "[11]", "result": 120, "unit": "pM"}, {"measurement": "EC50 (nM), platelet agglutination assay", "setting": "[17]", "result": 0.12, "unit": "nM"}, {"measurement": "Platelet agglutination EC50, single experiment", "setting": "[18]", "result": 1300, "unit": "pM"}, {"measurement": "Platelet agglutination EC50 mean value (from 2 independent expts.)", "setting": "[18]", "result": 1300, "unit": "pM"}]}
{"molecule": "B5", "values": [{"measurement": "EC50 (nM), platelet agglutination assay", "setting": "[17]", "result": 0.2, "unit": "nM"}]}
{"molecule": "B6", "values": [{"measurement": "fold lower activity compared to chimera, platelet agglutination assay", "setting": "[10]", "result": 10, "unit": "fold"}, {"measurement": "EC50 (nM), platelet agglutination assay", "setting": "[17]", "result": 1.63, "unit": "nM"}]}
{"molecule": "B7", "values": [{"measurement": "EC50, ristocetin-induced platelet agglutination assay", "setting": "[10]", "result": 170, "unit": "pM"}]}
